{"source": "patent US20060142223A1", "binders": {"B1": {"name": "mature CrATP6F polypeptide (Chlamydomonas reinhardtii ATPase 6 subunit of F0F1-ATP synthase with C-terminal FLAG epitope tag, after cleavage of the … (protein)", "chain": "STAAQVQSGATVNSLLLGIYRFWRSQAPMDKPHAPVDDRMLPAIVDASDNRAALGTWATALFCTILASNLLGLVPTNEAPTSGLGFATGLGVSVWATATTLGLYKLGFSFPGHFIPGGTPWPMAFIFVPLETISYTFRAVSLGVRLWVNMLAGHTLLHILTGMALALPFSLSFFAMVPATFAVACLLSALVGLEYLVAVLQSGVFSILSTVYVGEFNSVKLAGPLAKVVKKALDYKDDDDK"}}, "biological_target": "human F0F1-ATP synthase (complex V) (human)", "assay": "cell-based or functional assay", "data": [{"binder": "B1", "values": [{"measurement": "mitochondrial (oligomycin-sensitive) ATP synthesis in mutant (8993G) cybrids stably transfected with pCrA6F, against untransfected mutant cybrids", "value": 75, "unit": "%"}]}]}
